Paper PMC6249037

Columns and labels:
[1] = molecular target: N15 TCRαβ heterodimer, TCRα R251L (mouse)
[2] = molecular target: N15 TCRαβ heterodimer, WT TCRα (mouse) (UniProt P01849)
UniProt P01849, sequence (P01849 whole entry, looked up, one chain of several): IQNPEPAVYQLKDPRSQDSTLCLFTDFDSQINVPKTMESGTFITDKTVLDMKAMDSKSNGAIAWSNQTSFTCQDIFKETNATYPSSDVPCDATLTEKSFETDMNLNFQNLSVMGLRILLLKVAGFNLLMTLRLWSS

VSV8K^b (vesicular stomatitis virus nucleoprotein octapeptide VSV8 bound to [change]^b) (peptide-MHC)
catch bond force maximum [1]: 10 pN
force maximum for catch-bond formation (CD3δ-SxxS cell line) [2]: 15 pN
maximal bond lifetime (catch bond; CD3δ-SxxS cell line) [2]: 8 s
